Results as given in publication PMC12373786, “Targeted protein degradation in Escherichia coli using CLIPPERs” (EMBO Reports, 2025).
Each block holds one molecule with its values, some of them ahead of it. Square brackets hold non-standard residues; d marks the D form. Primed or numbered codes have the meaning given here. Ends that are not written are not given here. PEG3′ = three-unit polyethylene glycol linker

Experiments:
[1] = target: His-SUMO-XB-GGS (E. coli); assay: BLI; His-SUMO-tagged peptide loaded on Octet NTA biosensors (150 nM Anchor-Linker or 100 nM GroTAC1), blocked with His-SUMO; ClpX 1 uM to 31.25 nM in solution; 30 °C; 25 mM HEPES pH 8.0, 200 mM KCl, 10 mM MgCl2, 0.05% Tween-20, 2.5 mM ATP; 1:1 model
[2] = target: His-SUMO-XB-GGS-SBP (E. coli); assay: as above
[3] = target: His-SUMO-XB-GGS (E. coli); assay: BLI; His-SUMO-tagged peptide loaded on Octet NTA biosensors (150 nM Anchor-Linker or 100 nM GroTAC1), blocked with 86 nM His-SUMO; ClpX as analyte, 1 uM to 31.25 nM; 30 C; 25 mM HEPES pH 8.0, 200 mM KCl, 10 mM MgCl2, 0.05% Tween-20, 2.5 mM ATP; 1:1 fit
[4] = target: His-SUMO-XB-GGS-SBP (E. coli); assay: as above
His-SUMO-GGS-SBP [5] = assay: BLI; His-SUMO-tagged peptide loaded on Octet NTA biosensors (200 nM Linker-Bait or 400 nM GroTAC1), blocked with His-SUMO; GroEL 2.5 uM to 78.1 nM in solution; 30 °C; 25 mM HEPES pH 8.0, 300 mM KCl, 10 mM MgCl2, 0.05% Tween-20, 12.5 mM ATP; 1:1 model
[6] = target: His-SUMO-XB-GGS-SBP (E. coli); assay: as above
His-SUMO-GGS-SBP [7] = assay: BLI; His-SUMO-tagged peptide loaded on Octet NTA biosensors (200 nM Linker-Bait or 400 nM GroTAC1), blocked with 257 nM His-SUMO; GroEL as analyte, 2.5 uM to 78.1 nM; 30 C; 25 mM HEPES pH 8.0, 300 mM KCl, 10 mM MgCl2, 0.05% Tween-20, 12.5 mM ATP; 1:1 fit
[8] = target: His-SUMO-XB-GGS-SBP (E. coli); assay: as above
His-ZBD = target: T1, His-ZBD (E. coli, UniProt P0A6H1 1-52); assay: BLI; 1.37 uM His-ZBD loaded on Octet NTA biosensors, blocked with 600 nM cAbGFP; untagged synthetic peptide as analyte, 1 uM to 31.25 nM; 30 C; 25 mM HEPES pH 8.0, 200 mM KCl, 10 mM MgCl2, 2.5 mM ATP, 0.05% Tween 20; 1:1 fit; settings: both partners purified
T1 construct: also called 6xHis-ZBD; source: E. coli BL21 DE3, purified (HisTrap, Superdex200); not shown: His6, N-terminal, kept
T1 sequence (looked up): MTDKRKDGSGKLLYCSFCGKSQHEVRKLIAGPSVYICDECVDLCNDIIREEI

- Kd [1]: 65 nM
- Kd [2]: 70 nM
- Kd [3]: 64.8 nM
- koff [3]: 0.00495 s⁻¹
- kon [3]: 76500 M⁻¹ s⁻¹
- Kd [4]: 70.4 nM
- koff [4]: 0.00769 s⁻¹
- kon [4]: 109000 M⁻¹ s⁻¹
Molecule: ClpX (from UniProt P0A6H1 1-424) (enzyme)

- Kd (His-SUMO-GGS-SBP [5]): 94 nM
- Kd [6]: 154 nM
- Kd (His-SUMO-GGS-SBP [7]): 93.6 nM
- koff (His-SUMO-GGS-SBP [7]): 0.00919 s⁻¹
- kon (His-SUMO-GGS-SBP [7]): 98200 M⁻¹ s⁻¹
- koff [8]: 0.00409 s⁻¹
- kon [8]: 26600 M⁻¹ s⁻¹
Molecule: GroEL (from UniProt P0A6F5 1-548) (natural protein)

- Kd (His-ZBD): 52.6 nM
- koff (His-ZBD): 0.00165 s⁻¹
- kon (His-ZBD): 31400 M⁻¹ s⁻¹
B1: GroTAC2 (synthetic) (designed binder)
peptide: CYRGGRPALRVVKGGSGGSGGSWMTTPWGFHLP
notes: flexible linker; also called untagged, synthetic GroTAC2; source: synthetic peptide (GeneScript)

- Kd (His-ZBD): 82.4 nM
- koff (His-ZBD): 0.000915 s⁻¹
- kon (His-ZBD): 11100 M⁻¹ s⁻¹
B2: GroTAC3 (synthetic) (designed binder)
peptide: CYRGGRPALRVVK[PEG3′]SWMTTPWGFHLP
notes: residues 17-28 in the model PDB 8S32; the (PEG)3 linker is no amino acid stretch; also called XB-PEG3-SBP; source: synthetic peptide (KareBay Biochem)
